Assay results as given in US20150132310A1.

How the values were obtained:
[1] = biological target: human CD11b (Integrin alpha-M), full length (human) (UniProt P11215); assay: cell-based or functional assay
[2] = biological target: human recombinant CD11b I domain (N-terminal 6x-His, C-terminal 6x-glycine linker and 3x-Flag) (human) (UniProt P11215); assay: SPR (Biacore T100), human I domain immobilised on CM5 chip, LukAB as analyte, multi cycle kinetics
[3] = biological target: human recombinant Mac-1 (CD11b/CD18, integrin alphaM/beta2), R&D Systems (human) (UniProt P05107); assay: SPR (Biacore T100), Mac-1 immobilised on CM5 chip, LukAB as analyte, multi cycle kinetics
Protein S100-A8 (human) = Protein S100-A8 (human) (UniProt P05109); assay: His-LukAB pull-down from solubilised primary human PMNs on nickel resin, mass spectrometry
[4] = biological target: Protein tyrosine phosphatase (human) (UniProt P08575); assay: as above
Catalase (human) = Catalase (human) (UniProt P04040); assay: as above
[5] = biological target: Endoplasmic reticulum resident protein ERp44 (human) (UniProt Q9BS26); assay: as above
Serum albumin (human) = Serum albumin (human) (UniProt P02768); assay: as above
[6] = biological target: E3 ubiquitin-protein ligase CBL (human) (UniProt P22681); assay: as above
[7] = biological target: Guanine nucleotide-binding protein G(i) (human) (UniProt P04899); assay: as above
cDNA FLJ55635 (human) = assay: as above
[8] = biological target: human CD11b (Integrin alpha-M), full length (human) (UniProt P11215); assay: as above
[9] = biological target: ATP synthase subunit beta (human) (UniProt P06576); assay: as above
SFPQ protein (human) = assay: as above
[10] = biological target: Adipocyte plasma membrane-associated protein (human) (UniProt Q9HDC9); assay: as above
[11] = biological target: Glucose-6-phosphate isomerase (human) (UniProt P06744); assay: as above
Myeloperoxidase (human) = Myeloperoxidase (human) (UniProt P05164); assay: as above
cDNA FLJ76817 (human) = assay: as above
[12] = biological target: Hemoglobin subunit beta (human) (UniProt P68871); assay: as above
Myosin-9 (human) = Myosin-9 (human) (UniProt P35579); assay: as above
[13] = biological target: Peptidoglycan recognition protein (human) (UniProt O75594); assay: as above
Malic enzyme (human) = Malic enzyme (human) (UniProt P23368); assay: as above
CD63 antigen (human) = CD63 antigen (human) (UniProt P08962); assay: as above
cDNA FLJ78440 (human) = cDNA FLJ78440 (human) (UniProt A8K494); assay: as above
[14] = biological target: Beta-adrenergic receptor kinase 1 (human) (UniProt P25098); assay: as above
cDNA, FLJ92148 (human) = cDNA, FLJ92148 (human) (UniProt B2R4M6); assay: as above
[15] = biological target: Heat shock 70kDa protein 1A (human) (UniProt A8K5I0); assay: as above
cDNA FLJ53963 (human) = assay: as above
Actin (human) = Actin (human) (UniProt P63261); assay: as above
[16] = biological target: Pyruvate kinase isozymes M1/M2 (human) (UniProt P14618); assay: as above
cDNA FLJ75120 (human) = cDNA FLJ75120 (human) (UniProt Q99536); assay: as above
[17] = biological target: human CD18 (Integrin beta 2) (human); assay: as above
Plastin-2 (human) = Plastin-2 (human) (UniProt P13796); assay: as above
cDNA FLJ55493 (human) = cDNA FLJ55493 (human) (UniProt B4DMF5); assay: as above
Transketolase (human) = Transketolase (human) (UniProt P29401); assay: as above
[18] = biological target: 6-phosphogluconate dehydrogenase (human) (UniProt P52209); assay: as above
Alpha-actinin-1 (human) = Alpha-actinin-1 (human) (UniProt P12814); assay: as above
[19] = biological target: Putative uncharacterized protein LCN2 (human) (UniProt P80188); assay: as above
[20] = biological target: Bactericidal permeability-increasing protein (human) (UniProt P17213); assay: as above
Coronin-1A (human) = Coronin-1A (human) (UniProt P31146); assay: as above
Cntm_P13645 = Cntm_P13645 (UniProt P13645); assay: as above
Alpha-enolase (human) = Alpha-enolase (human) (UniProt P06733); assay: as above
[21] = biological target: Glyceraldehyde-3-phosphate dehydrogenase (human) (UniProt P04406); assay: as above
[22] = biological target: Mitogen-activated protein kinase 1 (human) (UniProt P28482); assay: as above
[23] = biological target: Adenylyl cyclase-associated protein (human) (UniProt B2RDY9); assay: as above
[24] = biological target: Hemoglobin subunit alpha (human) (UniProt P69905); assay: as above
[25] = biological target: human recombinant CD11b I domain (N-terminal 6x-His, C-terminal 6x-glycine linker and 3x-Flag) (human) (UniProt P11215); assay: SPR

Chain of UniProt P23368 (P23368 19-584 limits assumed): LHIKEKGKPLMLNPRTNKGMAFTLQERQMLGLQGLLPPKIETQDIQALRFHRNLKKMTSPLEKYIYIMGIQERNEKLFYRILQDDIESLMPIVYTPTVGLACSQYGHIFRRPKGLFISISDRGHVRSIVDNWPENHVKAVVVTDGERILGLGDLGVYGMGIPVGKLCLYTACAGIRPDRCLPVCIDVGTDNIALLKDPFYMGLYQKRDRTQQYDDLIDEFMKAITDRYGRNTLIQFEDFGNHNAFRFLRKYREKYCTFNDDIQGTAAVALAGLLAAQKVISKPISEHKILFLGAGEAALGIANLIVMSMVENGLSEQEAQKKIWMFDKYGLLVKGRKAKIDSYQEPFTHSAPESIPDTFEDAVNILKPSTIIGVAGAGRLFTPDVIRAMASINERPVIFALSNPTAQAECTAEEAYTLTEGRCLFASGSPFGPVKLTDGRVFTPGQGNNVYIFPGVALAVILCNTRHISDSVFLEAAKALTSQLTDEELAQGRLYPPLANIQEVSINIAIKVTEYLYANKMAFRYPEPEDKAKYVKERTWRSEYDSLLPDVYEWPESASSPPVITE
Chain of UniProt P13645 (P13645 whole entry): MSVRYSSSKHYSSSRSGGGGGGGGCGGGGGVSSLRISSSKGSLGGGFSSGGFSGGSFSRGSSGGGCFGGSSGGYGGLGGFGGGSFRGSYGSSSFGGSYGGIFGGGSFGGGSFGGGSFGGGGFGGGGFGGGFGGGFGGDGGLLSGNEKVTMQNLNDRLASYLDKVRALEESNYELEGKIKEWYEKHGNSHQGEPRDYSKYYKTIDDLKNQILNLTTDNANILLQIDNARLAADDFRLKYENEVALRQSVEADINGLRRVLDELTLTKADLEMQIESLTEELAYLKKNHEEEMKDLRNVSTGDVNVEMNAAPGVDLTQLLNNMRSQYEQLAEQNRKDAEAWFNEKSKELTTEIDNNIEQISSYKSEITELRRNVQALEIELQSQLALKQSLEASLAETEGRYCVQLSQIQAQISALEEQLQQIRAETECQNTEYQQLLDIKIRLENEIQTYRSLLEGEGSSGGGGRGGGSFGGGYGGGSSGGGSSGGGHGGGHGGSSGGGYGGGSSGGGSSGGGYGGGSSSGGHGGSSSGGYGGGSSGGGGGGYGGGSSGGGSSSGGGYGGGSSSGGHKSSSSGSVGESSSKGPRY
Chain of UniProt Q99536 (Q99536 2-393): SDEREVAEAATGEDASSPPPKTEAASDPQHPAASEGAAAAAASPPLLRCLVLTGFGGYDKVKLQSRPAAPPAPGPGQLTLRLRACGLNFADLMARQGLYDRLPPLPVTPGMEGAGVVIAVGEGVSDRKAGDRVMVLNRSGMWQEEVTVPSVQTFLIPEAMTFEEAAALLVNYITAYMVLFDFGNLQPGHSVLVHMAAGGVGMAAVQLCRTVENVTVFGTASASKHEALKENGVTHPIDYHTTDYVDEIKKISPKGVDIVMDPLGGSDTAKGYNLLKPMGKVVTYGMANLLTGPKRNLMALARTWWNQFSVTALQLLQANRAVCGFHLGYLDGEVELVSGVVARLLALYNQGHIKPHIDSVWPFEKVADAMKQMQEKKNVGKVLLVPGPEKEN
Chain of UniProt P68871 (P68871 2-147 limits assumed): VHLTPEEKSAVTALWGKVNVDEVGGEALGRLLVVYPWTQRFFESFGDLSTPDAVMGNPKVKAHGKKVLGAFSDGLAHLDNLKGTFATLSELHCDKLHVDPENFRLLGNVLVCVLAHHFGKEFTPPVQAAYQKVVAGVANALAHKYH
Chain of UniProt P69905 (P69905 2-142 limits assumed): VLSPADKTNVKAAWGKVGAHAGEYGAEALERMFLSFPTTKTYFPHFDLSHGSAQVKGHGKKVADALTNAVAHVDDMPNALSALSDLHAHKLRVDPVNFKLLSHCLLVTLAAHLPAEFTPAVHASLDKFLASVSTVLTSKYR
Chain of cDNA FLJ53963 (human) (P30740 whole entry): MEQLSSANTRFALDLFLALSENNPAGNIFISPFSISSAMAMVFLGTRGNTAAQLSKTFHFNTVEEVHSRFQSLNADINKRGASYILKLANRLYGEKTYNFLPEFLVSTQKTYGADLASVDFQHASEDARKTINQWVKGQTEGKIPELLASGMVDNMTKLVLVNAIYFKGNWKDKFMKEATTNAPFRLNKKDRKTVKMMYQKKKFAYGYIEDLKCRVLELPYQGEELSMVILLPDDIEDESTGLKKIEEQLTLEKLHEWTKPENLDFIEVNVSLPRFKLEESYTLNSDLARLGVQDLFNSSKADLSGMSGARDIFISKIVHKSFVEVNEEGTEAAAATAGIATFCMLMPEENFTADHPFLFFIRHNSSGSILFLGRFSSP
Chain of UniProt Q9BS26 (Q9BS26 30-406 limits assumed): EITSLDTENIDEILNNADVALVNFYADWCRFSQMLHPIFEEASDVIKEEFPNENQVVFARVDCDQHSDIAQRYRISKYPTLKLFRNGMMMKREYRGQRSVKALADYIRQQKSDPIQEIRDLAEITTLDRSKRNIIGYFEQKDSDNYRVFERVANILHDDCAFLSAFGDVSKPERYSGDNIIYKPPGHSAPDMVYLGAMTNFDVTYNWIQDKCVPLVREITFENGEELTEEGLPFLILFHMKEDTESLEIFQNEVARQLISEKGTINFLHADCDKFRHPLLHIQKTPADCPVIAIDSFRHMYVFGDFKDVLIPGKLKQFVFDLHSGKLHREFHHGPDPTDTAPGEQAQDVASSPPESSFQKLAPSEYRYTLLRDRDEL
Chain of UniProt P28482 (P28482 2-360 limits assumed): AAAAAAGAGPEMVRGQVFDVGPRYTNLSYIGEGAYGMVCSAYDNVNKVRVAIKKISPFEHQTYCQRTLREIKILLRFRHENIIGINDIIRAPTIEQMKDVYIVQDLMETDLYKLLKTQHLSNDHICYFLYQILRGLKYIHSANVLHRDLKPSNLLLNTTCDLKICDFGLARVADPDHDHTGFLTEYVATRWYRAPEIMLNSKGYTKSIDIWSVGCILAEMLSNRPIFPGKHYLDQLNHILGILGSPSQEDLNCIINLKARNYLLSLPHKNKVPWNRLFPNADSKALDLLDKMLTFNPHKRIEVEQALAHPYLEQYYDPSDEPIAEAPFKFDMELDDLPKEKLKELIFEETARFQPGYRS
Chain of cDNA FLJ76817 (human) (Q15233 whole entry): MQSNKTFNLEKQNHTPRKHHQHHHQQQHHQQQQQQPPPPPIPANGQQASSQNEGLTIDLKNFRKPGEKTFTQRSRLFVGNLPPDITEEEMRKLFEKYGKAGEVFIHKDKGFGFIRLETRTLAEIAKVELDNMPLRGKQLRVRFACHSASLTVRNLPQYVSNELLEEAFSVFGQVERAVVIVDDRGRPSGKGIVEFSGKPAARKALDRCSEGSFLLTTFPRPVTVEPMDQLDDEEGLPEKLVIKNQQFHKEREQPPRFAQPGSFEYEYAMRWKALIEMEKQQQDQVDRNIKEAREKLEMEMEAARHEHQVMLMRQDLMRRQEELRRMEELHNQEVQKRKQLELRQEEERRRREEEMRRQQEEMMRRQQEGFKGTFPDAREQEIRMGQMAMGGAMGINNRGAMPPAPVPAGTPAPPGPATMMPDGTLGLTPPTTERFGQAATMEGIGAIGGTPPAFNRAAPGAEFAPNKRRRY
Chain of UniProt P08962 (P08962 2-238 limits assumed): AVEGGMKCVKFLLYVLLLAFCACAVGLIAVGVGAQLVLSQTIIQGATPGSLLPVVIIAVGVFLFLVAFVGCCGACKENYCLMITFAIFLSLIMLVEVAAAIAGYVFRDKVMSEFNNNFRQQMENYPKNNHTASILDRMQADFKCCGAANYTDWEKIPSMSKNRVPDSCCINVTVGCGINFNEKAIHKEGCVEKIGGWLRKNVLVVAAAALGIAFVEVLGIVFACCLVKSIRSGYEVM
Chain of UniProt P12814 (P12814 whole entry): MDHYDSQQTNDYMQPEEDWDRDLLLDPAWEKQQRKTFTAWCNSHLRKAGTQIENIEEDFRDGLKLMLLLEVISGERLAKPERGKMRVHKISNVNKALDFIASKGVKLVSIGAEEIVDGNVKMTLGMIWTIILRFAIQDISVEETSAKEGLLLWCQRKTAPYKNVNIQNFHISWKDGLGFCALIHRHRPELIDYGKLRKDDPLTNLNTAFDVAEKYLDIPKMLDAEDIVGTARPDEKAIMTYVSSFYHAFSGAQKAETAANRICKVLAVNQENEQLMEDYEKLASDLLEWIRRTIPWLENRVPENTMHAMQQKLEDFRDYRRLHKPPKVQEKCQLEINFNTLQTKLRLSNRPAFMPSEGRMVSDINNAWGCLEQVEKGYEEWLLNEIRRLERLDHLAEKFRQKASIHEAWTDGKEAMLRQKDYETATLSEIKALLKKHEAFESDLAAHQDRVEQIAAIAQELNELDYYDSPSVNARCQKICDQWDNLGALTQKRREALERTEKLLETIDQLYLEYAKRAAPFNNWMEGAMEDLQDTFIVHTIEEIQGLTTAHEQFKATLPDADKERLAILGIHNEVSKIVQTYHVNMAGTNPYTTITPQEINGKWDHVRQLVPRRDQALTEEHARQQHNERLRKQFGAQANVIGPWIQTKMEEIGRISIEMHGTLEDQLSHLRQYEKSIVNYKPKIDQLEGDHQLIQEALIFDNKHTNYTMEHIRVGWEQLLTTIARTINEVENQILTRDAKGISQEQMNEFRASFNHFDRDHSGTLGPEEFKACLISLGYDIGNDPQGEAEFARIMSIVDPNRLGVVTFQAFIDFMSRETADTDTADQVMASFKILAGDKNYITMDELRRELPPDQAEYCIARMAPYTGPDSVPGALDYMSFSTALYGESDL
Chain of UniProt P04899 (P04899 2-355 limits assumed): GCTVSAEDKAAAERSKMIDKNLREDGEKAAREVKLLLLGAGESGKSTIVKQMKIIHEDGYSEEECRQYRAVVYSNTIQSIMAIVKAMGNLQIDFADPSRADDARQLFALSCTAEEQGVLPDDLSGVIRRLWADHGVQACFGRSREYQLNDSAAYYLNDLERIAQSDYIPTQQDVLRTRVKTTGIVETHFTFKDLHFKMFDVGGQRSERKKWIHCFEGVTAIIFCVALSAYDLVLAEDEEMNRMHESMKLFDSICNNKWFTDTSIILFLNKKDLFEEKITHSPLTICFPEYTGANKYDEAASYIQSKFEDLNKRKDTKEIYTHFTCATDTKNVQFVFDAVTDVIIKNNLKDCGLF

## His-tagged LukAB (leukotoxin AB, purified recombinant from S. aureus Newman)
[1]
  percent depletion of CD11b+ HEK293T cells (CD11b transfected), 40 µg/ml LukAB, 2 hours, flow cytometry: 80 to 90%
[2]
  Kd: 1.92 nM
[3]
  Kd: 38.4 nM
Protein S100-A8 (human)
  # of peptides: 5 peptides
[4]
  # of peptides: 3 peptides
Catalase (human)
  # of peptides: 3 peptides
[5]
  # of peptides: 4 peptides
Serum albumin (human)
  # of peptides: 13 peptides
[6]
  # of peptides: 3 peptides
[7]
  # of peptides: 3 peptides
cDNA FLJ55635 (human)
  # of peptides: 7 peptides
[8]
  # of peptides: 17 peptides
[9]
  # of peptides: 5 peptides
SFPQ protein (human)
  # of peptides: 4 peptides
[10]
  # of peptides: 5 peptides
[11]
  # of peptides: 3 peptides
Myeloperoxidase (human)
  # of peptides: 7 peptides
cDNA FLJ76817 (human)
  # of peptides: 3 peptides
[12]
  # of peptides: 5 peptides
Myosin-9 (human)
  # of peptides: 3 peptides
[13]
  # of peptides: 4 peptides
Malic enzyme (human)
  # of peptides: 5 peptides
CD63 antigen (human)
  # of peptides: 3 peptides
cDNA FLJ78440 (human)
  # of peptides: 8 peptides
[14]
  # of peptides: 3 peptides
cDNA, FLJ92148 (human)
  # of peptides: 4 peptides
[15]
  # of peptides: 5 peptides
cDNA FLJ53963 (human)
  # of peptides: 3 peptides
Actin (human)
  # of peptides: 7 peptides
[16]
  # of peptides: 9 peptides
cDNA FLJ75120 (human)
  # of peptides: 5 peptides
[17]
  # of peptides: 12 peptides
Plastin-2 (human)
  # of peptides: 8 peptides
cDNA FLJ55493 (human)
  # of peptides: 5 peptides
Transketolase (human)
  # of peptides: 4 peptides
[18]
  # of peptides: 3 peptides
Alpha-actinin-1 (human)
  # of peptides: 3 peptides
[19]
  # of peptides: 5 peptides
[20]
  # of peptides: 6 peptides
Coronin-1A (human)
  # of peptides: 6 peptides
Cntm_P13645
  # of peptides: 10 peptides
Alpha-enolase (human)
  # of peptides: 3 peptides
[21]
  # of peptides: 6 peptides
[22]
  # of peptides: 5 peptides
[23]
  # of peptides: 4 peptides
[24]
  # of peptides: 4 peptides
[25]
  difference in Kd against the LukAB-murine CD11b I-domain interaction: 8 to 9 logs
